The record followed here is PMC4598862, “Proteasome Activation is Mediated via a Functional Switch of the Rpt6 C-terminal Tail Following Chaperone-dependent Assembly” (Scientific Reports, 2015).

For one assay, the target named is T1, α3-T81C-HA6 (S. cerevisiae, UniProt P23638 1-258, T81C).
T1 construct: CP subunit α3, entire open reading frame with the cysteine substitution; also called α3^HA; source: expressed from the chromosomal locus in S. cerevisiae, immunoprecipitated from lysate on HA-agarose beads; not shown: 6xHA, C-terminal, kept
T1 sequence (looked up): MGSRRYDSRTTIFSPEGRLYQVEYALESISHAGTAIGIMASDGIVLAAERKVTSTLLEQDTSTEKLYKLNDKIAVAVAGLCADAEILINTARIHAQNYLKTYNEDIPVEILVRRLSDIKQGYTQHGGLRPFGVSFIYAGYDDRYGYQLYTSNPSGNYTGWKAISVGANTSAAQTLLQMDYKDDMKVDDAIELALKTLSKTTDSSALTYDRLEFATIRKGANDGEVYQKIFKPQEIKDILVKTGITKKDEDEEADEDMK
Briefly: cross-linking; proteasomes immunoprecipitated from yeast lysate on HA-agarose via the 6xHA tag of the α subunit, 1 mM ATP; engineered cysteine pair cross-linked with 0.1 mM BMOE, 1 h at 4 °C; SDS-PAGE, immunoblot for the Rpt protein and HA; wild-type and nas6Δ cells (no influence of Nas6); Rpt3-α2 also in rpt6-Δ1 cells (decreased). To be noted: partners not purified.

The target of assay [1] is α2-A79C-HA6 (S. cerevisiae) (UniProt P23639). Briefly: cross-linking; as a8 but with 2 mM ADP (0.5 mM ADP in the washes).

B1: Rpt6-K405C (natural protein, S. cerevisiae, UniProt Q01939 1-405, looked up)
chain: MTAAVTSSNIVLETHESGIKPYFEQKIQETELKIRSKTENVRRLEAQRNALNDKVRFIKDELRLLQEPGSYVGEVIKIVSDKKVLVKVQPEGKYIVDVAKDINVKDLKASQRVCLRSDSYMLHKVLENKADPLVSLMMVEKVPDSTYDMVGGLTKQIKEIKEVIELPVKHPELFESLGIAQPKGVILYGPPGTGKTLLARAVAHHTDCKFIRVSGAELVQKYIGEGSRMVRELFVMAREHAPSIIFMDEIDSIGSTRVEGSGGGDSEVQRTMLELLNQLDGFETSKNIKIIMATNRLDILDPALLRPGRIDRKIEFPPPSVAARAEILRIHSRKMNLTRGINLRKVAEKMNGCSGADVKGVCTEAGMYALRERRIHVTQEDFELAVGKVMNKNQETAISVAKLFC
notes: RP base ATPase Rpt6; K405 is the last residue of Rpt6; source: expressed from the chromosomal locus in S. cerevisiae, in proteasomes immunoprecipitated from lysate via α3-HA6
As to B1, the “percent decrease of the crosslink ratio (ATP) relative to the Rpt3-α2^HA ratio (ATP)” value with α3-T81C-HA6 came to 43.6%.

B2: Rpt3-K428C (natural protein)
chain: MEELGIVTPVEKAVEEKPAVKSYASLLAQLNGTVNNNSALSNVNSDIYFKLKKLEKEYELLTLQEDYIKDEQRHLKRELKRAQEEVKRIQSVPLVIGQFLEPIDQNTGIVSSTTGMSYVVRILSTLDRELLKPSMSVALHRHSNALVDILPPDSDSSISVMGENEKPDVTYADVGGLDMQKQEIREAVELPLVQADLYEQIGIDPPRGVLLYGPPGTGKTMLVKAVANSTKAAFIRVNGSEFVHKYLGEGPRMVRDVFRLARENAPSIIFIDEVDSIATKRFDAQTGSDREVQRILIELLTQMDGFDQSTNVKVIMATNRADTLDPALLRPGRLDRKIEFPSLRDRRERRLIFGTIASKMSLAPEADLDSLIIRNDSLSGAVIAAIMQEAGLRAVRKNRYVILQSDLEEAYATQVKTDNTVDKFDFYC
In turn, B2 displayed a percent decrease of crosslinking under ADP relative to ATP in assay [1] of 90%.
